Reference: the supplement of paper PMC9170038

Test system: MS2 coat protein
Test: apparent KD of MS2 coat protein; designed switch direction (-1 OFF switch, 1 ON switch): 1; higher = weaker reporter binding
Summary of the method: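 Three titration conditions were used: no input, 200 uM small-molecule ligand, and an oligonucleotide input. In each, SNAP-549-labelled MS2 coat protein was raised from 0.7 or 1.5 nM, doubling, to 3 µM over designed RNA switches transcribed on Illumina chips by stalled E. coli RNA polymerase. Curve fits of normalised cluster fluorescence gave values whose per-design median over clusters is the apparent KD.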

[1] = input ligand: microRNA oligo, concentration not stated
[2] = Eterna round: R95, input ligand: FMN 200 uM
[3] = Eterna round: R95, input ligand: microRNA oligo, concentration not stated
[4] = Eterna round: R95, input ligand: none

Row | Sequence | apparent KD of MS2 coat protein (input ligand: FMN 200 uM) | apparent KD of MS2 coat protein [1] | apparent KD of MS2 coat protein (input ligand: none) | apparent KD of MS2 coat protein [2] | apparent KD of MS2 coat protein [3] | apparent KD of MS2 coat protein [4]
1 | CCGAAAGGAGUAGGAUAUGUAGGAUAUGCCUACAUGAGGAUCACCCAUGUUCGCAUGGCAGAAGGACAGAAGGACACGGAAACG [pwkr ssNG2 2FMN + 1F5.12] (Eterna round: R96, puzzle: Same State NG 2) | 101 nM | 113 nM | 293 nM |  |  | 
2 | CCGAUCUACCGAAAGGUAGAUGGGCUUGUACAUGAGGAUCACCCAUGUCAGUACAAGCUUUUUGCUCCUCUUAUCCU [salish99-hsa-208a-40] (Eterna round: R96, puzzle: Sensor for hsa-mir-208a) | 41.8 nM | 14 nM | 42.7 nM |  |  | 
3 | CCGCCGGGAACCCGGCGGAAACAUGAGGAUCACCCAUGUACACAGGAUAUCGUGACAUUAACAAACGAGAAGGGUGGCCGAGAC [Atre] (Eterna round: R96, puzzle: Same State NG 3) | 345 nM | 91.6 nM | 137 nM |  |  | 
4 | CCGCUCCGUGGAGGAUAUGGGCCUGCCCGGGAUAACGGGCCUAACACAUGAGGAUCACCCAUGUCCCAGAAGGCCGCUGGAGCC [Atxerexebe] (Eterna round: R96, puzzle: Same State NG 2) | 24.8 nM | 40 nM | 113 nM |  |  | 
5 | CCGGUAAAUGGAGGAUAUGGAGCCUUAUUGGCUCCAGAAGGCUAACAUGAGGAUCACCCAUGUAUACCGGCGGUCAAUAGACCG [Eli NG1ss - 64] (Eterna round: R96, puzzle: Same State NG 1) | 11 nM | 16.3 nM | 21.8 nM |  |  | 
6 | CCGGUGAUAGGGCAGGAUAUGACUGUCGUCACAUGAGGAUCACCCAUGUCCCGGCAAUGCCACCGUUAGAAGGGCCCUAUCCCGA [Teuszaesti] (puzzle: Same State 2) |  |  |  | 14.8 nM | 12.1 nM | 15 nM
7 | CCUAUAGCCACAGGAUAUGAGAACACGUUGAACGUACAUGAGGAUCACCCAUGUCGCCGAUCGACUUAGAAGGGUGGCCCUCGC [Eternabot solution 26] (Eterna round: R96, puzzle: Same State NG 2) | 34.4 nM | 37.9 nM | 29.4 nM |  |  | 
8 | CGGCGCUGUCGAGAGGAUAUGCGGUGACGGACAUGAGGAUCACCCAUGUUAGCGAUAGCGUUACGGUAGAAGGCUCUACAGUCGC [Soteed Omei mod 10] (Eterna round: R96, puzzle: Same State 2) | 19.1 nM | 125 nM | 217 nM |  |  | 
9 | CGGCGCUGUCGAGAGGAUAUGCGGUGACGGACAUGAGGAUCACCCAUGUUAGCGAUAGCGUUACGGUAGAAGGCUCUACAGUCGC [Soteed Omei mod 10] (puzzle: Same State 2) |  |  |  |  | 49.2 nM | 
10 | CGGGUACAUGAGGAUCACCCAUGUUGGAGUAAUGCAGGAUAUGUGAGACGAGAAGAUAAAACAGAAGGGCAAGGAG [JR_SS!_Sub009] (puzzle: Same State 1) |  |  |  | 37.4 nM | 95 nM | 77.6 nM
11 | CGUCCAGCCUGAGCUGGACAAAAGCAUGUACAUGAGGAUCACCCAUGUUCAUGUACAAGCUUUUUGCUCGUCUUAUU [salish99_208a_r3_050] (puzzle: Sensor for hsa-mir-208a) |  |  |  | 681 nM | 16.1 nM | 739 nM
12 | CGUCCCUCCACAGGAUAUCGACCAUUAAAACGGCGAGAAGGGUGGCCACAUGAGGAUCACCCAUGUGGAAUUGGACAAGCUACC [Veonso] (Eterna round: R96, puzzle: Same State NG 1) | 127 nM | 23.9 nM | 127 nM |  |  | 
13 | CGUCCGGCCUGUGCUGGCCGGCGGCUUGUACAUGAGGAUCACCCAUGUUCUUGUGCUGGCUUUUUGCUCGUCUUGUG [salish99_mir208a_022] (puzzle: Sensor for hsa-mir-208a) |  |  |  | 32.2 nM | 16.3 nM | 39.5 nM
14 | CUCAAACAUGAGGAUCACCCAUGUGUUGUCAUGGGAGGAUAUCUAAGUUCGUUGUAGUCGGGAGAAGGCCUAUGUC [× ×•×ª×• ×ž×“×™× ×” × ×—×ª-11] (puzzle: Same State 1) |  |  |  |  | 182 nM | 
15 | CUCAACAACACAGGAUAUCCAGGGAAAAGCCCUGGAGAAGGGUGACCAACAUGAGGAUCACCCAUGUGACGGCUAAACCGUCUG [Inususisre] (Eterna round: R96, puzzle: Same State NG 1) | 319 nM | 509 nM | 60.7 nM |  |  | 
16 | CUCUUACAUGAGGAUCACCCAUGUGUUGUCGUGGGAGGAUAUCCUGGUUCGGUGGCGUUGGGAGAAGGCCUAUGUC [× ×•×ª×• ×ž×“×™× ×” × ×—×ª-18] (puzzle: Same State 1) |  |  |  |  | 378 nM | 
17 | CUGAGCAAGCAAGGAUAUCACGUCGAAUAGACGUGAGAAGGUGCUCCUUACAUGAGGAUCACCCAUGUAUAACAUGAAGCUCAG [SSNG1/10-A1] (Eterna round: R96, puzzle: Same State NG 1) | 254 nM | 869 nM | 1260 nM |  |  | 
18 | CUGAGCAAUCAAGGAUAUCACGUCGUUUAGACGUGAGAAGGUGAUCAUAACAUGAGGAUCACCCAUGUAUUACAUGAAGCUCAG [SSNG1/1-A3] (Eterna round: R96, puzzle: Same State NG 1) | 767 nM | 363 nM | 919 nM |  |  | 
19 | CUGAGCAAUCUAGGAUAUCACGUCGAUUAGACGUGAGAAGGAGAUCAUAACAUGAGGAUCACCCAUGUAUUACAUGAAGCUCAG [SSNG1/7-A2] (Eterna round: R96, puzzle: Same State NG 1) | 11.7 nM | 13.8 nM | 19.1 nM |  |  | 
20 | CUGAGCAGUCAAGGAUAUCACGUCGAUUAGACGUGAGAAGGUGAUCAUUACAUGAGGAUCACCCAUGUGUUACAUGGAGCUCAG [Brourd's SSNG1/1-A2 mod 5] (Eterna round: R96, puzzle: Same State NG 1) | 413 nM | 49.1 nM | 358 nM |  |  | 
21 | CUGAGCGAUCAAGGAUAUCACGUCGUUUAGACGUGAGAAGGUGAUAAUUACAUGAGGAUCACCCAUGUAUAACAUGAAGCUCAG [SSNG1/9-A3] (Eterna round: R96, puzzle: Same State NG 1) | 14 nM | 16.4 nM | 21 nM |  |  | 
22 | CUGUGUUGCGGGCAGGAUAUGUACUUGAGUACAUGAGGAUCACCCAUGUGCGGGUGUUUCACCCGACAGAAGGGCCUAUCGCGAC [JL-ss2-3.24 ViennaUCT mod] (puzzle: Same State 2) |  |  |  | 140 nM | 395 nM | 329 nM
23 | CUUUCUCUUGCAGGAUAUCCUAGUCUUCGGUUAGGAGAAGGGCAAGGAAACUUGCUAAGCAAGUCUGUAACAGAGAUCCUUCCU [pwkr ssNG1 F9.2] (Eterna round: R96, puzzle: Same State NG 1) | 124 nM | 78.2 nM | 164 nM |  |  | 
24 | CUUUUUCCUUUUACAUGAGGAUCACCCAUGUUUUCAUAUUGAGAGGAUAUCGUAUUUGGAAUUUUCGAGAAGGCUCAUUUGUAU [JR_SSNG3_Sub075] (Eterna round: R96, puzzle: Same State NG 3) | 39.4 nM | 25.5 nM | 28.9 nM |  |  | 
